In the RNAGym collection of RNA variant scans (doi:10.1021/acssynbio.7b00057):

B1: Pistol ribozyme (parent)
chain: GGGUCGUUGUUCCAUAAUCGCGUGGAUAUGGCACGCAAGUUUCUACCGGGCACCGUAAAUGUCCGACUGGAGCCGUUCGGGCGGCUAUAAACAGACCUCAGGCCCGAAGCGUGGCGGCACCUGCCGCCGGUGGUAAAAAAGAUCGGAAGAGCACACGUCU

Variants of: B1
Experiment: aptazyme ON/OFF ratio, guanine; higher = stronger switching; co-transcriptional cleavage with and without guanine

Variant	aptazyme ON/OFF ratio
U7G U8A U10G	1.28
U7G U8A U10G U11G C12G C13G	0.981
U7G U8A U10G U11G C12G C13U	1.7
U7G U8A U10G U11G C12G C13A	1.15
U7G U8C G9A U10A U11G C12G	1.19
U7G U8C G9A U10A U11G C12A	1.06
U7G U8C G9A U10A U11G C12U	1.26
U7G U8C G9A U10A U11A C12A C13G	1.12
U7G U8C G9A U10A U11A C12A C13A	1.21
U7G U8C G9A U10A U11A C12A C13U	1.17
U7G U8A U10C U11C C13G	1.05
U7G U8A U10C U11C C13U	1.01
U7G U8A U10C U11C C13A	1.05
U7G U8A U10G U11A C12G	1.43
U7G U8A U10G U11A C12U	1.23
U7G U8A U10G U11A C12A	1.16
U7G U8C G9A U10C U11A	3.52
U7G U8C G9A U10C U11C	1.16
U7G U8C G9A U10C U11G	1.5
U7G U8A U10G C12G C13U	1.27
U7G U8A U10G C12G C13G	1.18
U7G U8A U10G C12G C13A	1.25
U7G U8C C13U	1.46
U7G U8C C13A	1.21

Variant	aptazyme ON/OFF ratio
U7G U8C C13G	1.07
U7G U8A U10G U11C C12G C13A	1.4
U7G U8A U10G U11C C12G C13G	1.26
U7G U8A U10G U11C C12G C13U	1.25
U7G U8A U11G C12A C13G	1.37
U7G U8A U11G C12A C13A	1.24
U7G U8A U11G C12A C13U	1.34
U7G U8C G9A U10C U11C C12G	1.16
U7G U8C G9A U10C U11C C12U	1.09
U7G U8C G9A U10C U11C C12A	1.16
U7G U8A U10G U11C C12A C13A	1.43
U7G U8A U10G U11C C12A C13U	1.2
U7G U8A U10G U11C C12A C13G	1.17
U7G U8C C12A	1.05
U7G U8C C12G	1.12
U7G U8C C12U	1.2
U7G U8C G9A U10G U11A C12U	1.06
U7G U8C G9A U10G U11A C12G	1.08
U7G U8C G9A U10G U11A C12A	1.11
U7G U8C G9A U10G U11C C12G	1.2
U7G U8C G9A U10G U11C C12U	1.09
U7G U8C G9A U10G U11C C12A	1.3
U7G U8C G9A U10G U11A C13A	1.05
U7G U8C G9A U10G U11A C13U	1.05

Variant	aptazyme ON/OFF ratio
U7G U8C G9A U10G U11A C13G	1.04
U7G U8C G9A U10G C12G C13A	1.12
U7G U8C G9A U10G C12G C13U	1.15
U7G U8C G9A U10G C12G C13G	1.05
U7G U8C G9A U10A U11C C13A	1.1
U7G U8C G9A U10A U11C C13G	1.05
U7G U8C G9A U10A U11C C13U	1.08
U7G U8A U10C U11G C12G C13G	1.11
U7G U8A U10C U11G C12G C13U	1.05
U7G U8A U10C U11G C12G C13A	1.26
U7G U8C G9A U10G C12U	1.35
U7G U8C G9A U10G C12G	1.13
U7G U8C G9A U10G C12A	1.18
U7G U8C G9A U10C C13G	1.08
U7G U8C G9A U10C C13A	1.07
U7G U8C G9A U10C C13U	1.58
U7G U8A U11A C13U	1.4
U7G U8A U11A C13G	1.15
U7G U8A U11A C13A	1.45
U7G U8A U10G C12U C13G	1.54
U7G U8A U10G C12U C13A	1.6
U7G U8A U10G C12U C13U	1.12
U7G U8C G9A U10C U11C C12A C13U	1.2
U7G U8C G9A U10C U11C C12A C13G	1.28

Variant	aptazyme ON/OFF ratio
U7G U8C G9A U10C U11C C12A C13A	1.2
U7G U8A U10G U11A C13G	1.23
U7G U8A U10G U11A C13A	1.18
U7G U8A U10G U11A C13U	1.4
U7G U8A U10C U11G C13A	1.34
U7G U8A U10C U11G C13U	1.41
U7G U8A U10C U11G C13G	1.26
U7G U8A U10G U11G C12A C13A	1.16
U7G U8A U10G U11G C12A C13U	1.73
U7G U8A U10G U11G C12A C13G	1.38
U7G U8C G9A U10G U11A	1.07
U7G U8C G9A U10G U11C	1.04
U7G U8A U11G C13G	1.15
U7G U8A U11G C13U	1.21
U7G U8A U11G C13A	1.2
U7G U8C G9A U10G U11C C12A C13G	1.16
U7G U8C G9A U10G U11C C12A C13A	1.15
U7G U8C G9A U10G U11C C12A C13U	1.19
U7G U8A U10C U11G C12A C13A	1.19
U7G U8A U10C U11G C12A C13G	1.19
U7G U8A U10C U11G C12A C13U	1.37
U7G U8A U10G U11G C12A	1.3
U7G U8A U10G U11G C12U	1.26
U7G U8A U10G U11G C12G	1.5

Variant	aptazyme ON/OFF ratio
U7G U8C G9A U10A C12A	1.15
U7G U8C G9A U10A C12U	1.62
U7G U8C G9A U10A C12G	1.24
U7G U8A U11C C12A C13G	1.36
U7G U8A U11C C12A C13U	1.46
U7G U8A U11C C12A C13A	1.23
U7G U8C G9A U10G U11A C12A C13A	1.04
U7G U8C G9A U10G U11A C12A C13G	1.09
U7G U8C G9A U10G U11A C12A C13U	1.11
U7G U8A U11C C12G	1.24
U7G U8A U11C C12U	1.41
U7G U8A U11C C12A	1.29
U7G U8C G9A U10A U11C C12A C13U	1.13
U7G U8C G9A U10A U11C C12A C13G	1.25
U7G U8C G9A U10A U11C C12A C13A	1.13
U7G U8C G9A U10C U11G C12A C13A	1.11
U7G U8C G9A U10C U11G C12A C13G	1.08
U7G U8C G9A U10C U11G C12A C13U	1.16
U7G U8A U11G C12G C13U	1.4
U7G U8A U11G C12G C13A	1.16
U7G U8A U11G C12G C13G	1.32
U7G U8A U10G C12A C13A	1.58
U7G U8A U10G C12A C13U	1.15
U7G U8A U10G C12A C13G	1.11

Variant	aptazyme ON/OFF ratio
U7G U8C G9A U10A U11C	1.11
U7G U8C G9A U10A U11A	3.25
U7G U8C G9A U10A U11G	1.87
U7G U8C G9A U10C U11A C12A	1.33
U7G U8C G9A U10C U11A C12G	1.18
U7G U8C G9A U10C U11A C12U	1.18
U7G U8A U10G C12G	1.13
U7G U8A U10G C12U	1.17
U7G U8A U10G C12A	1.03
U7G U8C G9A U10G C12A C13U	1.09
U7G U8C G9A U10G C12A C13G	1.03
U7G U8C G9A U10G C12A C13A	1.07
U7G U8C G9A U10A U11A C12U C13A	1.13
U7G U8C G9A U10A U11A C12U C13U	1.14
U7G U8C G9A U10A U11A C12U C13G	1.15
U7G U8C G9A C13U	1.22
U7G U8C G9A C13G	1.03
U7G U8C G9A C13A	1.09
U7G U8A U11C C12U C13U	1.47
U7G U8A U11C C12U C13A	1.32
U7G U8A U11C C12U C13G	1.09
U7G U8C G9A U10A U11A C12G C13U	1.15
U7G U8C G9A U10A U11A C12G C13G	1.13
U7G U8C G9A U10A U11A C12G C13A	1.13

Variant	aptazyme ON/OFF ratio
U7G U8C G9A C12U	1.07
U7G U8C G9A C12G	1.07
U7G U8C G9A C12A	1.06
U7G U8C G9A U10A C13U	1.83
U7G U8C G9A U10A C13G	1.06
U7G U8C G9A U10A C13A	1.19
U7G U8C G9A C12G C13G	1.04
U7G U8C G9A C12G C13A	1.05
U7G U8C G9A C12G C13U	1.03
U7G U8A U10G U11A C12U C13A	1.37
U7G U8A U10G U11A C12U C13U	1.1
U7G U8A U10G U11A C12U C13G	1.37
U7G U8A U11A C12G C13A	1.08
U7G U8A U11A C12G C13U	1.21
U7G U8A U11A C12G C13G	1.18
U7G U8C G9A U10C U11C C13G	1.03
U7G U8C G9A U10C U11C C13U	1.01
U7G U8C G9A U10C U11C C13A	1.02
U7G U8A U11A C12A C13U	1.39
U7G U8A U11A C12A C13A	1.35
U7G U8A U11A C12A C13G	1.24
U7G U8A U11A	2.25
U7G U8A U11G	1.24
